Test results taken from publication PMC10379010, “Short Peptides of Innate Immunity Protein Tag7 (PGLYRP1) Selectively Induce Inhibition or Activation of Tumor Cell Death via TNF Receptor” (International Journal of Molecular Sciences, 2023).

T1: soluble TNFR1 receptor domain (sTNFR1) (UniProt P19438 30-211, fluorescently labeled with Alexa Fluor 633 or Alexa Fluor 488 in the MST only)
T1 construct: TNF receptor TNFR1, soluble extracellular domain (sTNFR1); also called soluble TNFR1 site; source: recombinant, obtained as described in [10], purified
T1 sequence (looked up): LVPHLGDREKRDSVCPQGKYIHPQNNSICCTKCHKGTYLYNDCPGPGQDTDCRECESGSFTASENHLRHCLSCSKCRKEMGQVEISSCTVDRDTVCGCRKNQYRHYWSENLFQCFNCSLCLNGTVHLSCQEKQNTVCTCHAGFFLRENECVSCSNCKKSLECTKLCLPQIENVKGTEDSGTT

B1: Tag7 protein (PGLYRP1) (natural protein, UniProt O75594 22-196, looked up)
chain: QETEDPACCSPIVPRNEWKALASECAQHLSLPLRYVVVSHTAGSSCNTPASCQQQARNVQHYHMKTLGWCDVGYNFLIGEDGLVYEGRGWNFTGAHSGHLWNPMSIGISFMGNYMDRVPTPQAIRAAQGLLACGVAQGALRSNYVLKGHRDVQRTLSPGNQLYHLIQNWPHYRSP
notes: Tag7 (PGLYRP1), innate immunity protein; also called full-sized Tag7 protein; source: recombinant, obtained as described in [10]
B2: peptide 17.1A (peptide)
peptide: HRDVQRT
notes: Not biotinylated; used in the MST and the cytotoxicity tests; source: synthetic peptide (Fmoc, HPLC purified)

Biological target: T1, soluble TNFR1 receptor domain (sTNFR1)
Experiment: MST; sTNFR1 or Hsp70 labeled with Alexa Fluor 633 or 488 (200 nM), 20 min in the dark at room temperature with 16 concentrations of each compound; Monolith NT 115, IR laser power 10%; apparent Kd; triplicate
Settings: both partners purified

Binder | Kd
B1 | 43.2 nM
B2 | 5.44 nM
